Reference: patent publication US20230312753A1 (IMMUNORIZON, published 2023)

Tests used:
[1] = target: T1, 5T4 on cells (NCI-H226 endogenous; CHO over-expressing 5T4) (UniProt Q13641 32-420, limits assumed); experiment: FACS on NCI-H226 cells, endogenous 5T4 (FIG. 45B)
T1 construct: whole, on cells
T1 sequence (looked up): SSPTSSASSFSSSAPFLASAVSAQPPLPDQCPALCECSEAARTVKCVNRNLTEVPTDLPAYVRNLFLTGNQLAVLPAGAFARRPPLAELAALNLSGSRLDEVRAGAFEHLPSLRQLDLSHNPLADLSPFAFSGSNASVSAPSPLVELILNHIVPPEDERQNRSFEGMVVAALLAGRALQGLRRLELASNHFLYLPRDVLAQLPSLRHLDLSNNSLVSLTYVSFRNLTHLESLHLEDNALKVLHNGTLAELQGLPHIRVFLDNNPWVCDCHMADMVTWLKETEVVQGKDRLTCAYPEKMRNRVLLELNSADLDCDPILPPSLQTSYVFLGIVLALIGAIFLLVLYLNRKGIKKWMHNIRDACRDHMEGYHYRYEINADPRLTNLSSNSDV
Protocol: Suspension cultured cells was harvested directly, and adherent cell were digested using TrypLE Express Enzyme (cat: 12604-013, supplier Life technologies). Centrifuge at 1000 rpm for 5 min and discard the supernatant. Cells are suspended at a concentration of 2×10⁶/mL in FACS buffer (2% FBS in PBS) and add 100 µL/well of cell suspension to the plate (cat #3799, supplier Corning). Centrifuging the plates at 2000 rpm for 5 min and discard the supernatant. Re-suspend the cells in 100 µL/well of Tribody set antibodies (400 nM start, 4-fold dilution, 8 point including 0 point) and incubate the plate for 60 min at 4° C. Centrifuge the plate at 2000 rpm, 4° C. for 5 min and discard supernatant. Then wash the cells 3 times with 170 µL FACS buffer. Re-suspend the cells at 100 µL/well with secondary antibody (goat anti-human Ig Fab-FITC, Cat # 2085-02, Southern biotech) with 1:400 dilution and incubate the plate for 30 min at 4° C. in dark. Centrifuge the plate at 2000 rpm, 4° C. for 5 min and discard supernatant. […] The fluorescence intensity of the staining was measured using flow cytometer (BD, FACSVerse). The geometric mean fluorescence intensity (GMFI; median fluorescence intensity (MFI)) of set antibodies staining was calculated (BD FACSuite software). Dose-response curves were generated and EC50s for thetrispecific variants binding were calculated using GraphPad Prism software.

[2] = target: T2, NKG2A/CD94 on CHO cells (CHOK1-NKG2A-CD94) (human, UniProt P26715 1-233; Q13241 1-179, limits assumed); experiment: competitive FACS receptor-ligand blocking assay on CHOK1-NKG2A-CD94 cells, labelled ligand HLA-E PE (FIG. 49)
T2 construct: whole, on cells; also called CHO cells over-expressing NKG2A/CD94; CHO cell line over expressing ectopic NKG2A
T2 sequence (P26715 whole entry, chain 1 of 2): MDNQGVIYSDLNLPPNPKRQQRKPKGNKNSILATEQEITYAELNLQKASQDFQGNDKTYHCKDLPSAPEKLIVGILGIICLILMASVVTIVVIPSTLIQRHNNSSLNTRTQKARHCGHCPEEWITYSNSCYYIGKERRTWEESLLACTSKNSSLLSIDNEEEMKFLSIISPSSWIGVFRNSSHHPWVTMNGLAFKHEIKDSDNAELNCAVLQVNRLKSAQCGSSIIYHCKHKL
T2 sequence (Q13241 whole entry, chain 2 of 2): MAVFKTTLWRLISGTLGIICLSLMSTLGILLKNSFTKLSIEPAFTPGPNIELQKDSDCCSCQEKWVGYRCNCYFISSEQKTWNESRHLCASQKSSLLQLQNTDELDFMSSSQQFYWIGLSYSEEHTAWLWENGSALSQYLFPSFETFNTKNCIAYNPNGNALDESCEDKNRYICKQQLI

B1: IM-1063 variant (other)
heavy: GGSGGSEVQLVESGGGLVQPGGSLRLSCAASGFTFNTYAMNWVRQAPGKGLEWVARIRSKYNNYATYYADSVKDRFTISRDDSKNTLYLQMNSLRAEDTAVYYCVRHGNFGNSYVSWFAYWGQGTMVTVSSASTKGPSVFPLAPSSKSTSGGTAALGCLVKDYFPEPVTVSWNSGALTSGVHTFPAVLQSSGLYSLSSVVTVPSSSLGTQTYICNVNHKPSNTKVDKRVEPKSCPPCGGGGSQVQLVQSGAEVKKPGASVKVSCKASGYTFTSYWMNWVRQAPGQGLEWMGRIDPYDSETHYAQKLQGRVTMTTDTSTSTAYMELRSLRSDDTAVYYCARGGYDFDVGTLYWFFDVWGQGTTVTVSSGGGGSGGGGSGGGGSGGGGSDIQMTQSPSSLSASVGDRVTITCRASENIYSYLAWYQQKPGKAPKLLIYNAKTLAEGVPSRFSGSGSGTDFTLTISSLQPEDFATYYCQHHYGTPRTFGGGTKVEIK
light: GGSGGSQAVVTQEPSLTVSPGGTVTLTCRSSTGAVTTSNYANWVQQKPGQAPRGLIGGTNKRAPGTPARFSGSLLGGKAALTLSGVQPEDEAEYYCALWYSNLWVFGGGTKLTVLGQPKAAPSVTLFPPSSEELQANKATLVCLISDFYPGAVTVAWKADSSPVKAGVETTTPSKQSNNKYAASSYLSLTPEQWKSHRSYSCQVTHEGSTVEKTVAPTECPPCSGGGSDIQMTQSPSSLSASVGDRVTITCRASQGISNYLAWFQQKPGKAPKSLIYRANRLQSGVPSRFSGSGSGTDFTLTISSLQPEDVATYYCLQYDDFPWTFGQGTKLEIKGGGGSGGGGSGGGGSGGGGSQVQLVQSGAEVKKPGASVKVSCKASGYTFTSFWMHWVRQAPGQGLEWMGRIDPNRGGTEYNEKAKSRVTMTADKSTSTAYMELSSLRSEDTAVYYCAGGNPYYPMDYWGQGTTVTVSS
notes: CD3/5T4/NKG2A Tribody variant
**Q.** For B1, which EC50 [1] is on record?
**A.** 0.00164 µM

B2: IM-1155 Tribody, additional CD3 epsilon mutant variant (other)
heavy: GGSGGSEVQLVESGGGLVQPGGSLRLSCAASGFTFNGGSGGWVRQAPGKGLEWVAGGGSGGGGSGGGSGGSGGGRFTISRDDSKNTLYLQMNSLRAEDTAVYYCVRGGGSGGSGGSGGGGWGQGTMVTVSSASTKGPSVFPLAPSSKSTSGGTAALGCLVKDYFPEPVTVSWNSGALTSGVHTFPAVLQSSGLYSLSSVVTVPSSSLGTQTYICNVNHKPSNTKVDKRVEPKSCPPCGGGGSDIQMTQSPSSLSASVGDRVTITCRASENIYSYLAWYQQKPGKAPKLLIYNAKTLAEGVPSRFSGSGSGTDFTLTISSLQPEDFATYYCQHHYGTPRTFGGGTKVEIKGGGGSGGGGSGGGGSGGGGSQVQLVQSGAEVKKPGASVKVSCKASGYTFTSYWMNWVRQAPGQGLEWMGRIDPYDSETHYAQKLQGRVTMTTDTSTSTAYMELRSLRSDDTAVYYCARGGYDFDVGTLYWFFDVWGQGTTVTVSS
light: GGSGGSQAVVTQEPSLTVSPGGTVTLTCGSSGGGSGGGGSGGWVQQKPGQAPRGLIGGGSGGGSGTPARFSGSLLGGKAALTLSGVQPEDEAEYYCGGGGSGGGGFGGGTKLTVLGQPKAAPSVTLFPPSSEELQANKATLVCLISDFYPGAVTVAWKADSSPVKAGVETTTPSKQSNNKYAASSYLSLTPEQWKSHRSYSCQVTHEGSTVEKTVAPTECPPCSGGGSDIQMTQSPSSLSASVGDRVTITCRASQGISNYLAWFQQKPGKAPKSLIYRANRLQSGVPSRFSGSGSGTDFTLTISSLQPEDVATYYCLQYDDFPWTFGQGTKLEIKGGGGSGGGGSGGGGSGGGGSQVQLVQSGAEVKKPGASVKVSCKASGYTFTSFWMHWVRQAPGQGLEWMGRIDPNRGGTEYNEKAKSRVTMTADKSTSTAYMELSSLRSEDTAVYYCAGGNPYYPMDYWGQGTTVTVSS
**Q.** How did the IC50 [2] turn out when B2 was run?
**A.** 0.06 µM
